Data as given in PMC3876986, “The Velvet Family of Fungal Regulators Contains a DNA-Binding Domain Structurally Similar to NF-κB”.
Changes are numbered by the printed parent chain.

Legend:
Assay in all cases: EMSA; EMSA: 10 mM HEPES/NaOH pH 7.4, 150 mM NaCl, ~53 pmol DNA in 10 ul, RT 15 min; DNA:protein molar ratios 1:0.3 to 1:9; 6% PAGE, 0.5% TBE, ethidium bromide
Conditions in all cases: protein: recombinant; tags: Strep-tag (C-terminal); chain copies: 2; blunt
VosA1-190 K160A = biological target: T1, VosA1-190 K160A (Aspergillus nidulans, UniProt Q5BBX1 1-190, K160A)
T1 sequence: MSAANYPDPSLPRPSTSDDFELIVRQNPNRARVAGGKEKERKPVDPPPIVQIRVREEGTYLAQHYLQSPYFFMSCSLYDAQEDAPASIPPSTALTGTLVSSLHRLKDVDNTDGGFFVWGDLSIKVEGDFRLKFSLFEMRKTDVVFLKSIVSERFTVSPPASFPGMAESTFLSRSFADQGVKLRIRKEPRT

VosA1-190 dead = biological target: T2, VosA1-190 dead (Aspergillus nidulans, UniProt Q5BBX1 1-190, K37A;K39A;R41A;K42A)
T2 sequence: T1 sequence with K37A, K39A, R41A, K42A, A160K

VosA1-190 K37A/K39A = biological target: T3, VosA1-190 K37A/K39A (Aspergillus nidulans, UniProt Q5BBX1 1-190, K37A;K39A)
T3 sequence: T1 sequence with K37A, K39A, A160K

B1: brlA 35 bp probe (OHS301/302) (dsDNA)
DNA 1: ATTCGGCGACTAGGATCTTACTGGCCGCGGCCGAG
DNA 2: CTCGGCCGCGGCCAGTAAGATCCTAGTCGCCGAAT
B1: binds (VosA1-190 K160A); no binding (VosA1-190 dead); no binding (VosA1-190 K37A/K39A).
